Assay results taken from patent publication CN116813769A (FUZHOU CREMAB PHARMACEUTICAL INC, dated 2023).

B1: 7DC2 (antibody, human IgG1, kappa, V domains shown)
VH: QVQLQQSGPELVKPGASVKMSCKASGYTFTNYFMHWVKQKPGQGLEWIGYINPYNDGTKYNEKFKGKATLTSDKSSSTAYMELSSLTSEDSAVYYCTKGGRYSMDYWGQGTTLTVSS
VL: DVVMTQTPLSLPVRLGDEVSISCRSSQTIVFTNGNTYLEWYLQKPGQSPKLLIYKVSNRFSGVPDRFSGSGSGTDFTLTISRVEAEDLGIYYCFQGSHVPYTFGGGTKLELKR
notes: Full-length chimeric antibody (mouse variable regions, human constant regions); also called 7DC2抗体
B2: 7DC4 (antibody, human IgG1, kappa, V domains shown)
VH: QVQLKQSGAELVQPGASVKLSCKASGYTFTNYYMYWLRQRPGQGLEWIGEINPSNGGTDFNEKFKSKATLTVDKSSSTAFMQLSSLTSDDSAVYYCARGGFTMDYWGQGTTVTVSS
VL: DVVMTQTPLSLPVSLGDQASISCRSSQSLVHSNGNTYLHWYLQKPGQSPKLLIYKVSNRFSGVPDRFSGSGSGTDFTLKISRVEAEDLGVYFCSQSTHVPLTFGAGTKLELKR
notes: Full-length chimeric antibody (mouse variable regions, human constant regions); also called 7DC4抗体

How the values were obtained:
[1] = target: T1, 人CD47胞外段-His tag重组蛋白 (SinoBiological 12283-H08H) (human, UniProt Q08722 19-139); assay: BLI (Octet K2), HIS1K sensor loaded with CD47-his tag, antibody in solution, 1:1 fit
T1 construct: extracellular domain; Bought reagent; Captured on HIS1K sensor; also called CD47-his tag蛋白

[2] = target: T2, 经生物素标记的CD47-hFc蛋白 (biotin-labelled CD47-hFc protein, expressed in house) (UniProt Q08722 19-141, biotin-labelled (site not stated)); assay: BLI (Octet K2), SA sensor loaded with biotinylated CD47-hFc, antibody in solution, 1:1 fit
T2 construct: Self-expressed; Captured on SA sensor
T2 sequence (Q08722 19-141): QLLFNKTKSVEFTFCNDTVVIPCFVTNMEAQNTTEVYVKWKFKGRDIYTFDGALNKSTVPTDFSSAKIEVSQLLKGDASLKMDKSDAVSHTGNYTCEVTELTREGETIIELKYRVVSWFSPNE

T1 sequence (Q08722 19-139 limits assumed): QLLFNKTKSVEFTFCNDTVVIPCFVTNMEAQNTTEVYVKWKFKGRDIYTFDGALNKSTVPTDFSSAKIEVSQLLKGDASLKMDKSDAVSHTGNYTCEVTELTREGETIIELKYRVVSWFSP

| Binder | Kd [1] | Kd [2] |
| --- | --- | --- |
| B1 | 221 pM | 192 pM |
| B2 | 20.2 pM | 27.6 pM |
